Assay results taken from article PMC5697884, “In vitro characterization of the antivirulence target of Gram-positive pathogens, peptidoglycan O-acetyltransferase A (OatA)” (PLoS Pathogens, 2017).

Test system: CC(=O)Oc1ccc([N+](=O)[O-])cc1
Experiment: purified protein
Settings: hydrolysis (esterase) without acceptor, 50 mM sodium phosphate pH 6.5, 5% (v/v) ethanol, 25 °C

Row | Substance | Km [µM] | kcat [s⁻¹]
1 | SaOatAC (Staphylococcus aureus subsp. aureus NCTC 8325) | 1150 ± 70 | 0.060 ± 0.00078
2 | SpOatAC (Streptococcus pneumoniae R6) | 56 ± 6.5 | 0.016 ± 0.00039
